According to patent US20220227830A1, “QD DOSING OF GIP RECEPTOR AGONIST PEPTIDE COMPOUNDS AND USES THEREOF” (Takeda Pharmaceutical Company Limited, priority 2020, published 2022):
Starred links: 1 amine or outer side, 2 acyl side, 3 side chain; linkers in the order of their positions; H or OH if unused. Non-standard residues stand in square brackets, D forms with d. Groups on a side chain read outwards from the residue. No end group written: not given here. *: point of attachment. 2OEGgEgE‑C15DA = 2OEGgEgE-C15 diacid linker-lipid on the Lys side chain, O=C(O)CCCCCCCCCCCCCC(=O)N[C@@H](CCC(=O)N[C@@H](CCC(=O)NCCOCCOCC(=O)NCCOCCOCC(=O)*)C(=O)O)C(=O)O; GGEEE‑C15DA = Gly-Gly-Glu-Glu-Glu linker (GGEEE) joined to a C15 diacid lipid (C15DA), on the Lys side chain; 2OEGgE‑C16DA = O=C(O)CCCCCCCCCCCCCCC(=O)N[C@@H](CCC(=O)NCCOCCOCC(=O)NCCOCCOCC(=O)*)C(=O)O; C15 diacid = O=C(O)CCCCCCCCCCCCCC(=O)*; γGlu = O=C(O)[C@H](CCC(=O)[*:2])N[*:1]; NMeY = CN[C@@H](Cc1ccc(O)cc1)C(=O)O; AEEA = NCCOCCOCC(=O)O; Aib = CC(C)(N)C(=O)O

T1: full-length human GIPR with an N-terminal FLAG tag (human, UniProt P48546 22-466)
T1 sequence (looked up): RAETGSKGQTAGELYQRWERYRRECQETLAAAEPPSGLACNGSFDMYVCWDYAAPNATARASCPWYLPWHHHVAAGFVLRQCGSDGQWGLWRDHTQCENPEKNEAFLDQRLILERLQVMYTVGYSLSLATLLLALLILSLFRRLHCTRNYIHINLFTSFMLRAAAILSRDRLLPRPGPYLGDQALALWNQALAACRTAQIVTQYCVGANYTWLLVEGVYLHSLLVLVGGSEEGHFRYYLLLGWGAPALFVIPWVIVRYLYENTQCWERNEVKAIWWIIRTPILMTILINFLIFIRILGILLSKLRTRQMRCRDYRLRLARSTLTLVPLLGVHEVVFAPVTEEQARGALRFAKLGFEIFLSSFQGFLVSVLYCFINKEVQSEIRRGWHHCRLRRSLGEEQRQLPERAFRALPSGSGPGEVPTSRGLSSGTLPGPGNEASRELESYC


Columns and labels:
[1] = target: T1, full-length human GIPR with an …; assay: cell-based or functional assay
[2] = target: full-length human GLP-1R with an N-terminal FLAG tag (human, UniProt P43220 24-463); assay: cell-based or functional assay

Row | Binder | Human GIPR cAMP, HEK293T EC50 [1] [nM] | Human GLP1R cAMP HEK293T EC50 [2] [nM]
1 | [NMeY][Aib]EGTFISDYSIALDRK([AEEA-AEEA-γGlu-C15 diacid])AQ[Aib]DFVNWLLAQRPSSGAPPPS-NH2 [Compound 104] | 0.0004 | 1000
2 | [NMeY][Aib]EGTFISDYSIALDR[Aib]K(GGEEE‑C15DA)Q[Aib]NFVNWLLAQSPSSGAPPPS-NH2 [Compound 105] | 0.0003 | 1000
3 | [NMeY][Aib]EGTFISDYSIALDR[Aib]KQ[Aib]DFVNWLLAQSPSSGAPPPS-NH2 (not fully specified (residue 18, N-terminus)) [Compound 106] | 0.0005 | 120
4 | [NMeY][Aib]EGTFISDYSI[Aib]LDR[Aib]AQ[Aib]K(2OEGgEgE‑C15DA)FVNWLLAQR-NH2 (N-terminus assumed; SMILES CC[C@H](C)[C@H](NC(=O)[C@H](Cc1ccccc1)NC(=O)[C@@H](NC(=O)CNC(=O)[C@H](CCC(=O)O)NC(=O)C(C)(C)NC(=O)[C@H](Cc1ccc(O)cc1)NC)[C@@H](C)O)C(=O)N[C@@H](CO)C(=O)N[C@@H](CC(=O)O)C(=O)N[C@@H](Cc1ccc(O)cc1)C(=O)N[C@@H](CO)C(=O)N[C@H](C(=O)NC(C)(C)C(=O)N[C@@H](CC(C)C)C(=O)N[C@@H](CC(=O)O)C(=O)N[C@@H](CCCNC(=N)N)C(=O)NC(C)(C)C(=O)N[C@@H](C)C(=O)N[C@@H](CCC(N)=O)C(=O)NC(C)(C)C(=O)N[C@@H](CCCCNC(=O)COCCOCCNC(=O)COCCOCCNC(=O)CC[C@H](NC(=O)CC[C@H](NC(=O)CCCCCCCCCCCCCC(=O)O)C(=O)O)C(=O)O)C(=O)N[C@@H](Cc1ccccc1)C(=O)N[C@H](C(=O)N[C@@H](CC(N)=O)C(=O)N[C@@H](Cc1c[nH]c2ccccc12)C(=O)N[C@@H](CC(C)C)C(=O)N[C@@H](CC(C)C)C(=O)N[C@@H](C)C(=O)N[C@@H](CCC(N)=O)C(=O)N[C@@H](CCCNC(=N)N)C(N)=O)C(C)C)[C@@H](C)CC) [Compound 108] | 0.0005 | 41.7
5 | [NMeY][Aib]EGTFISDYSIALDR[Aib]AQ[Aib]DFVNWLLAK(2OEGgE‑C15DA)RPSSGAPPPS-NH2 [Compound 109] | 0.0005 | 832
6 | [NMeY][Aib]EGTFISDYSIALDRIHQ[Aib]NFVNWLLK(2OEGgE‑C16DA)QK [Compound 10] | 0.0006 | 955
7 | [NMeY][Aib]EGTFISDYSI[Aib]LDR[Aib]AQ[Aib]K([AEEA-γGlu-γGlu-γGlu-C15 diacid])FVNWLLAQK-NH2 (N-terminus assumed; SMILES CC[C@H](C)[C@H](NC(=O)[C@H](Cc1ccccc1)NC(=O)[C@@H](NC(=O)CNC(=O)[C@H](CCC(=O)O)NC(=O)C(C)(C)NC(=O)[C@H](Cc1ccc(O)cc1)NC)[C@@H](C)O)C(=O)N[C@@H](CO)C(=O)N[C@@H](CC(=O)O)C(=O)N[C@@H](Cc1ccc(O)cc1)C(=O)N[C@@H](CO)C(=O)N[C@H](C(=O)NC(C)(C)C(=O)N[C@@H](CC(C)C)C(=O)N[C@@H](CC(=O)O)C(=O)N[C@@H](CCCNC(=N)N)C(=O)NC(C)(C)C(=O)N[C@@H](C)C(=O)N[C@@H](CCC(N)=O)C(=O)NC(C)(C)C(=O)N[C@@H](CCCCNC(=O)COCCOCCNC(=O)CC[C@H](NC(=O)CC[C@H](NC(=O)CC[C@H](NC(=O)CCCCCCCCCCCCCC(=O)O)C(=O)O)C(=O)O)C(=O)O)C(=O)N[C@@H](Cc1ccccc1)C(=O)N[C@H](C(=O)N[C@@H](CC(N)=O)C(=O)N[C@@H](Cc1c[nH]c2ccccc12)C(=O)N[C@@H](CC(C)C)C(=O)N[C@@H](CC(C)C)C(=O)N[C@@H](C)C(=O)N[C@@H](CCC(N)=O)C(=O)N[C@@H](CCCCN)C(N)=O)C(C)C)[C@@H](C)CC) [Compound 112] | 0.0004 | 12
8 | [NMeY][Aib]EGTFISDYSI[Aib]LDR[Aib]AQ[Aib]KFVNWLLAQRGGGGS-NH2 (not fully specified (residue 21)) [Compound 114] | 0.0007 | 115
9 | [NMeY][Aib]EGTFISDYSI[Aib]K([AEEA-γGlu-γGlu-γGlu-C15 diacid])DR[Aib]AQ[Aib]NFVNWLLAQR-NH2 (N-terminus assumed; SMILES CC[C@H](C)[C@H](NC(=O)[C@H](Cc1ccccc1)NC(=O)[C@@H](NC(=O)CNC(=O)[C@H](CCC(=O)O)NC(=O)C(C)(C)NC(=O)[C@H](Cc1ccc(O)cc1)NC)[C@@H](C)O)C(=O)N[C@@H](CO)C(=O)N[C@@H](CC(=O)O)C(=O)N[C@@H](Cc1ccc(O)cc1)C(=O)N[C@@H](CO)C(=O)N[C@H](C(=O)NC(C)(C)C(=O)N[C@@H](CCCCNC(=O)COCCOCCNC(=O)CC[C@H](NC(=O)CC[C@H](NC(=O)CC[C@H](NC(=O)CCCCCCCCCCCCCC(=O)O)C(=O)O)C(=O)O)C(=O)O)C(=O)N[C@@H](CC(=O)O)C(=O)N[C@@H](CCCNC(=N)N)C(=O)NC(C)(C)C(=O)N[C@@H](C)C(=O)N[C@@H](CCC(N)=O)C(=O)NC(C)(C)C(=O)N[C@@H](CC(N)=O)C(=O)N[C@@H](Cc1ccccc1)C(=O)N[C@H](C(=O)N[C@@H](CC(N)=O)C(=O)N[C@@H](Cc1c[nH]c2ccccc12)C(=O)N[C@@H](CC(C)C)C(=O)N[C@@H](CC(C)C)C(=O)N[C@@H](C)C(=O)N[C@@H](CCC(N)=O)C(=O)N[C@@H](CCCNC(=N)N)C(N)=O)C(C)C)[C@@H](C)CC) [Compound 115] | 0.0005 | 437
10 | [NMeY][Aib]EGTFISDYSI[Aib]K([AEEA-AEEA-γGlu-C15 diacid])DR[Aib]AQ[Aib]DFVNWLLAQRPSSGAPPPS-NH2 (N-terminus assumed; SMILES CC[C@H](C)[C@H](NC(=O)[C@H](Cc1ccccc1)NC(=O)[C@@H](NC(=O)CNC(=O)[C@H](CCC(=O)O)NC(=O)C(C)(C)NC(=O)[C@H](Cc1ccc(O)cc1)NC)[C@@H](C)O)C(=O)N[C@@H](CO)C(=O)N[C@@H](CC(=O)O)C(=O)N[C@@H](Cc1ccc(O)cc1)C(=O)N[C@@H](CO)C(=O)N[C@H](C(=O)NC(C)(C)C(=O)N[C@@H](CCCCNC(=O)COCCOCCNC(=O)COCCOCCNC(=O)CC[C@H](NC(=O)CCCCCCCCCCCCCC(=O)O)C(=O)O)C(=O)N[C@@H](CC(=O)O)C(=O)N[C@@H](CCCNC(=N)N)C(=O)NC(C)(C)C(=O)N[C@@H](C)C(=O)N[C@@H](CCC(N)=O)C(=O)NC(C)(C)C(=O)N[C@@H](CC(=O)O)C(=O)N[C@@H](Cc1ccccc1)C(=O)N[C@H](C(=O)N[C@@H](CC(N)=O)C(=O)N[C@@H](Cc1c[nH]c2ccccc12)C(=O)N[C@@H](CC(C)C)C(=O)N[C@@H](CC(C)C)C(=O)N[C@@H](C)C(=O)N[C@@H](CCC(N)=O)C(=O)N[C@@H](CCCNC(=N)N)C(=O)N1CCC[C@H]1C(=O)N[C@@H](CO)C(=O)N[C@@H](CO)C(=O)NCC(=O)N[C@@H](C)C(=O)N1CCC[C@H]1C(=O)N1CCC[C@H]1C(=O)N1CCC[C@H]1C(=O)N[C@@H](CO)C(N)=O)C(C)C)[C@@H](C)CC) [Compound 116] | 0.0003 | 339
